Data taken from the supplement of paper PMC10065799, “High-throughput profiling of sequence recognition by tyrosine kinases and SH2 domains using bacterial peptide display” (eLife, 2023).

Tests used:
Jak2 = Jak2 (UniProt O60674); assay: phosphorylation enrichment, bacterial display (enrichment ratio); higher = better substrate or ligand; peptides without Tyr show the background
Fes = Fes (UniProt P07332); assay: as above
FGFR3 = FGFR3 (UniProt P22607); assay: as above
EPHB2 = EPHB2 (UniProt P29323); assay: as above
Fyn = Fyn (UniProt P06241); assay: as above
EPHB1 = EPHB1 (UniProt P54762); assay: as above
c-Src = assay: as above
Hck = Hck (UniProt P08631); assay: as above
MERTK = MERTK (UniProt Q12866); assay: as above
FGFR1 = FGFR1 (UniProt P11362); assay: as above
AncSZ = assay: as above
Fer (mouse) = assay: as above
c-Abl (mouse) = assay: as above
c-Src SH2 = assay: SH2 binding enrichment of the phosphorylated peptide, bacterial display (enrichment ratio); higher = better substrate or ligand; peptides without Tyr show the background
Grb2 SH2 = Grb2 SH2 (UniProt P62993); assay: as above
SHP2-C SH2 = assay: as above
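Throughout, for SH2 binding enrichment of the phosphorylated peptide, bacterial display: peptide library displayed on the E. coli surface as eCPX fusions, selected cells deep-sequenced, score is each peptide's frequency after selection divided by its frequency in the input.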
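Throughout, for phosphorylation enrichment, bacterial display: 11-residue human phosphosite peptides and single-mutation variants displayed on the E. coli surface, counted by deep sequencing, each peptide's frequency after selection divided by its frequency in the unselected input library; frequency after pTyr selection over input frequency; kinase dosed for 20-30% of maximal phosphorylation in three min.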

MERTK, sequence (Q12866 whole entry, looked up): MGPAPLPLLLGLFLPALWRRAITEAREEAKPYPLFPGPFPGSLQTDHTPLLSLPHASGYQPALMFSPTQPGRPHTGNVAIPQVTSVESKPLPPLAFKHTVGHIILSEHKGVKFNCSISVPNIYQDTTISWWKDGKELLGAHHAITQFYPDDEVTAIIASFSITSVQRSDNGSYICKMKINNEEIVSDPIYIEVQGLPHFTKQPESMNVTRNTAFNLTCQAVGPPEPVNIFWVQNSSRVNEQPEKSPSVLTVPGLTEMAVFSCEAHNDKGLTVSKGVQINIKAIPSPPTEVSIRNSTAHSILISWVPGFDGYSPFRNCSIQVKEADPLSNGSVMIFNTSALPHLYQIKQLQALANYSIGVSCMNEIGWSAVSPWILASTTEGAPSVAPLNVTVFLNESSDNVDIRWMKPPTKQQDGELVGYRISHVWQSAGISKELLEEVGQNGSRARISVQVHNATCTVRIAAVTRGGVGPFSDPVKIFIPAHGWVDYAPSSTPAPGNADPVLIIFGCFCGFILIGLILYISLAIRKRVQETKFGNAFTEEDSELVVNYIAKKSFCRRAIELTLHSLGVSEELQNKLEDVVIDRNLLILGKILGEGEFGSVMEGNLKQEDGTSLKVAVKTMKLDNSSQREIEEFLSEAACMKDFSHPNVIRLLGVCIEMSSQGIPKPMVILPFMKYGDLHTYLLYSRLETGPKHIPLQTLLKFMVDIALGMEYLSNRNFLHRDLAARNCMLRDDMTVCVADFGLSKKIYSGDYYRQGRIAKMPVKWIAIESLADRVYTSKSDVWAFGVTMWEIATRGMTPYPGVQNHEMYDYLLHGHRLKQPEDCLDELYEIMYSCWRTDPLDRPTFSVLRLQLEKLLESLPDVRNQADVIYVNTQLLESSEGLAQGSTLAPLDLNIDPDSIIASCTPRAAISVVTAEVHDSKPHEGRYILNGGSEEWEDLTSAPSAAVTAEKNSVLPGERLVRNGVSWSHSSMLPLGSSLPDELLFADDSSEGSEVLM
FGFR1, sequence (P11362 whole entry, looked up): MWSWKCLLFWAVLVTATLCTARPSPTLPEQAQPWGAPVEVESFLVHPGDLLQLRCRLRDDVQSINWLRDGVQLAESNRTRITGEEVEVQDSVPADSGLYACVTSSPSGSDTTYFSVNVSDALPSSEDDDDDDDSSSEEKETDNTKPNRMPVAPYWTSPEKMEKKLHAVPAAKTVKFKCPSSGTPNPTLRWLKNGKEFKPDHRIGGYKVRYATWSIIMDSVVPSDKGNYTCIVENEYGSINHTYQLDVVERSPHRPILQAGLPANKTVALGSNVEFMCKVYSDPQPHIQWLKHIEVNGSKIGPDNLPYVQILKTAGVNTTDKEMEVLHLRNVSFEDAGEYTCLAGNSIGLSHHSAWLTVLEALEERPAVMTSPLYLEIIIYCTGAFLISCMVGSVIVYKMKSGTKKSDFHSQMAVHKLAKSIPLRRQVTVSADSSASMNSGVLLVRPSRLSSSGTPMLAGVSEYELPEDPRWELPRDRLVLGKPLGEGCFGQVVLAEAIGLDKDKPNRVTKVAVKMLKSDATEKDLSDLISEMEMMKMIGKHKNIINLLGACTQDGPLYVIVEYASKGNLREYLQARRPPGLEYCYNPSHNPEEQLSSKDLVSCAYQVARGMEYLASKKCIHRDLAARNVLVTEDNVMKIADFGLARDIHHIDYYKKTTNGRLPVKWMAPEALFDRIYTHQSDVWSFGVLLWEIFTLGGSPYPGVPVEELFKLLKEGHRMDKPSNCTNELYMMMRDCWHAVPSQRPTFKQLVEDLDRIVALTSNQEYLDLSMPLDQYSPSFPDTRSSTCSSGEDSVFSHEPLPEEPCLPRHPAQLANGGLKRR
Hck, sequence (P08631 whole entry, looked up): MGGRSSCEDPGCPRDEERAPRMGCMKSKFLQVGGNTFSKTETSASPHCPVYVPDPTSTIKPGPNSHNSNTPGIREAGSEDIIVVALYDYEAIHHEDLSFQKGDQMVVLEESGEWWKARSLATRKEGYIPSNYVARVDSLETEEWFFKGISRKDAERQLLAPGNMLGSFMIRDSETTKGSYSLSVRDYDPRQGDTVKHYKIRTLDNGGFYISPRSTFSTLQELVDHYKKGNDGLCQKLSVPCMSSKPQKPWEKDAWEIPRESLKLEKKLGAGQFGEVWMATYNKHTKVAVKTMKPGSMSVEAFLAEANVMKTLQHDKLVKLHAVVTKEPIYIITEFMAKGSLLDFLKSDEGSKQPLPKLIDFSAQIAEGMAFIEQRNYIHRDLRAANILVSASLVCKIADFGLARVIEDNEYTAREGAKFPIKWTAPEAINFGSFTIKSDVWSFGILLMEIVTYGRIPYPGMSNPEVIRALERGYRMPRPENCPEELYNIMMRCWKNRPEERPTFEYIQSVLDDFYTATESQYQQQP
EPHB1, sequence (P54762 whole entry, looked up): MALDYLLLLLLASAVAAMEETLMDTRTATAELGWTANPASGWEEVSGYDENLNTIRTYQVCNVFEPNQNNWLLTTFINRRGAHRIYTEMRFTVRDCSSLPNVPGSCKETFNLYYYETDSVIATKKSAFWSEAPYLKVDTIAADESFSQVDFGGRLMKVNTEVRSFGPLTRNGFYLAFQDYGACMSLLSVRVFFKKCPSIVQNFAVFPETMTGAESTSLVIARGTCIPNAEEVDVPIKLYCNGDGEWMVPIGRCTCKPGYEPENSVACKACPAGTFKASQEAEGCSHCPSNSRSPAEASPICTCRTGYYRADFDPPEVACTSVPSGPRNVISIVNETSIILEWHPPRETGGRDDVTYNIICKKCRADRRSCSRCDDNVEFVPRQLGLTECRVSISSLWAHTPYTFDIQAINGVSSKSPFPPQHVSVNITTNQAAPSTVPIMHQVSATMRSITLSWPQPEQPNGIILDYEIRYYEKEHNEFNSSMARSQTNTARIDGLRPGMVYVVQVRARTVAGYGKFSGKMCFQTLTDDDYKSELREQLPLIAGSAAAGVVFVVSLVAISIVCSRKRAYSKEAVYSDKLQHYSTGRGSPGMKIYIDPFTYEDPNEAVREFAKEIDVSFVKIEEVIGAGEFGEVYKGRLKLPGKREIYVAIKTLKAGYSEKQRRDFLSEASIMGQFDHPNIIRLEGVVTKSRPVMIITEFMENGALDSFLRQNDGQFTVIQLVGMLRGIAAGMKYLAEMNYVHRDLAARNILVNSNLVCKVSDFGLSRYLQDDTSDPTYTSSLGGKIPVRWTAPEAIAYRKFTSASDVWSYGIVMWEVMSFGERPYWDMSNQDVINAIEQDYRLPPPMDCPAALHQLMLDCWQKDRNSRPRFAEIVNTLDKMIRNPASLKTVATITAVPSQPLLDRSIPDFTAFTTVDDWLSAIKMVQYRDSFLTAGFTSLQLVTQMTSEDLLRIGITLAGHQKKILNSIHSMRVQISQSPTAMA
FGFR3, sequence (P22607 whole entry, looked up): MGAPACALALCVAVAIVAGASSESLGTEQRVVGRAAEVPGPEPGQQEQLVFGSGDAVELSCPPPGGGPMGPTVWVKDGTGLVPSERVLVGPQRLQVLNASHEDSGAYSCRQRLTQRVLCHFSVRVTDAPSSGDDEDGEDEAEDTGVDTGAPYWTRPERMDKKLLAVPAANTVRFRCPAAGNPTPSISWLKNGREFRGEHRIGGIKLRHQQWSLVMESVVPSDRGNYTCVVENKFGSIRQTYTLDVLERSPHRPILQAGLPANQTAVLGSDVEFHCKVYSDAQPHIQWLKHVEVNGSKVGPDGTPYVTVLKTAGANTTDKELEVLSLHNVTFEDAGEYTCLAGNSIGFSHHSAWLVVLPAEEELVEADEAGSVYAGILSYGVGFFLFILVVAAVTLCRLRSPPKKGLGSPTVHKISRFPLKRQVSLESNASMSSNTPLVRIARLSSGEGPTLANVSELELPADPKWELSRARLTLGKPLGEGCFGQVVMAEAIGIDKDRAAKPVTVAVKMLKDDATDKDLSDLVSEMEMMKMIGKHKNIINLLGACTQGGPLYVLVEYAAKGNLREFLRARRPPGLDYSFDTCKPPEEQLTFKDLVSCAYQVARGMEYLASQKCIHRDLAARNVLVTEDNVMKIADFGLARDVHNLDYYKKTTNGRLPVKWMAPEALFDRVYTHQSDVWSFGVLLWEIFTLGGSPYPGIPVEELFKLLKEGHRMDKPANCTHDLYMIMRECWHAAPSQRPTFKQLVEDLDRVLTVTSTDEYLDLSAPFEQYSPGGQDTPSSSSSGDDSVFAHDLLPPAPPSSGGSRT
Fes, sequence (P07332 whole entry, looked up): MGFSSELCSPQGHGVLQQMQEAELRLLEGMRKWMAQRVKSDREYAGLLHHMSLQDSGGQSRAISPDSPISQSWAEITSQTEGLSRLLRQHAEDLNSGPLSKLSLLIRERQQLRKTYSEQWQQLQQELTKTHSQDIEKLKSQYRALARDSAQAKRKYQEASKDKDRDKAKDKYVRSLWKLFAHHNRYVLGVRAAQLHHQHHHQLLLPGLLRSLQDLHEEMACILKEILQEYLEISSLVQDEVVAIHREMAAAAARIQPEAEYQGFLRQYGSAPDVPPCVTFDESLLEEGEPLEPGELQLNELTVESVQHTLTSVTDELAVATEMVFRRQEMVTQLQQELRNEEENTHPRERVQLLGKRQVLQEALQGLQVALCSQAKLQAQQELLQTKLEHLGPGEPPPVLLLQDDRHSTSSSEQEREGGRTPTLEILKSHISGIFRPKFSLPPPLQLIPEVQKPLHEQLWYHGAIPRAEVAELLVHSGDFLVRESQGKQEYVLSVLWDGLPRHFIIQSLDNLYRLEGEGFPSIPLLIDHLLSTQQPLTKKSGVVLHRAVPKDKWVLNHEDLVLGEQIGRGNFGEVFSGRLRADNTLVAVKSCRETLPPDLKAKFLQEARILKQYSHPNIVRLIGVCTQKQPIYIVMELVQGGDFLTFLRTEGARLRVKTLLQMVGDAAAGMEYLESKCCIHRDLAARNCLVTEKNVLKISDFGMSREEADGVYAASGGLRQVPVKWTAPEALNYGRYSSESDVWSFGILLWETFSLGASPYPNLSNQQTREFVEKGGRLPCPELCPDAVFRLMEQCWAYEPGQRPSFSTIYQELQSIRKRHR

Sequence | SH2 binding enrichment (c-Src SH2) | SH2 binding enrichment (Grb2 SH2) | SH2 binding enrichment (SHP2-C SH2) | phosphorylation enrichment (Jak2) | phosphorylation enrichment (Fes) | phosphorylation enrichment (FGFR3) | phosphorylation enrichment (EPHB2) | phosphorylation enrichment (Fyn) | phosphorylation enrichment (EPHB1) | phosphorylation enrichment (c-Src) | phosphorylation enrichment (Hck) | phosphorylation enrichment (MERTK) | phosphorylation enrichment (FGFR1) | phosphorylation enrichment (AncSZ) | phosphorylation enrichment (Fer (mouse)) | phosphorylation enrichment (c-Abl (mouse))
RSSGSYGGGGQ [HNRNPA1_Y341_P340S] | 0.457 | 0.777 | 0.68 | 0.354 | 0.532 | 0.485 | 0.606 | 0.539 | 1.5 | 0.366 | 0.423 | 0.415 | 0.536 | 0.492 | 0.438 | 0.527
CIILLYIFLKN [STXBP1_Y411_R406C] | 1.49 | 2.18 | 1.74 | 0.553 | 0.693 | 0.531 | 0.275 | 0.378 | 0.441 | 0.37 | 0.465 | 0.363 | 0.392 | 0.676 | 0.406 | 0.492
HKDNNYISMWF [PAPOLG_Y432_V433I] | 0.346 | 0.726 | 0.51 | 1.46 | 2.53 | 2.46 | 2.15 | 0.934 | 2.88 | 0.663 | 0.866 | 1.33 | 3.2 | 1.93 | 1.14 | 0.975
CKQGKYLNWDA [ATM_Y54_S49C] | 0.735 | 5.58 | 1.24 | 0.782 | 0.839 | 0.632 | 0.494 | 0.418 | 0.552 | 0.366 | 0.423 | 0.39 | 0.447 | 0.921 | 0.397 | 0.605
KILTHYKQPHT [KMT2D_Y5349_R5351Q] | 0.907 | 1.05 | 0.998 | 0.726 | 0.565 | 0.412 | 0.403 | 0.478 | 0.364 | 0.416 | 0.46 | 0.506 | 0.437 | 0.763 | 0.384 | 1.18
GRRNTCFASIA [ACADM_Y352_Y352C_YF] | 0.529 | 0.842 | 0.565 | 0.711 | 0.691 | 0.405 | 0.348 | 0.401 | 0.383 | 0.391 | 0.365 | 0.413 | 0.377 | 0.665 | 0.424 | 0.556
CRERPYGGGGG [FUS_Y526_R521C] | 0.651 | 0.87 | 0.593 | 0.587 | 1.13 | 0.468 | 0.406 | 0.389 | 0.552 | 0.377 | 0.481 | 0.438 | 0.556 | 0.631 | 0.647 | 0.459
YEKFLYFLPAS [DYNC2H1_Y346_H341Y] | 2.21 | 1.05 | 1.19 | 2.7 | 1.31 | 0.91 | 0.644 | 0.868 | 0.764 | 0.938 | 0.827 | 2.16 | 0.57 | 1.5 | 0.581 | 0.89
RFVFFYSFLLK [PTEN_Y178_YF] | 0.552 | 1.45 | 1.43 | 1.64 | 1.65 | 0.9 | 0.502 | 0.623 | 0.748 | 1.05 | 0.509 | 0.539 | 0.731 | 1.44 | 0.612 | 1.45
EVVGRYSLHNA [MLH1_Y183_V185L] | 0.488 | 0.802 | 0.767 | 0.445 | 0.671 | 0.424 | 0.368 | 0.382 | 0.421 | 0.364 | 0.411 | 0.405 | 0.502 | 0.478 | 0.33 | 0.371
KSRQIYDAFIM [GRK3_Y109_R104K_YF] | 0.477 | 0.703 | 0.947 | 0.799 | 0.941 | 0.6 | 6.65 | 13 | 4.7 | 9.72 | 10.4 | 11.7 | 0.576 | 0.764 | 14.4 | 16.5

Second part, led by results:

SH2 binding enrichment (c-Src SH2) | SH2 binding enrichment (Grb2 SH2) | SH2 binding enrichment (SHP2-C SH2) | Sequence | phosphorylation enrichment (Jak2) | phosphorylation enrichment (Fes) | phosphorylation enrichment (FGFR3) | phosphorylation enrichment (EPHB2) | phosphorylation enrichment (Fyn) | phosphorylation enrichment (EPHB1) | phosphorylation enrichment (c-Src) | phosphorylation enrichment (Hck) | phosphorylation enrichment (MERTK) | phosphorylation enrichment (FGFR1) | phosphorylation enrichment (AncSZ) | phosphorylation enrichment (Fer (mouse)) | phosphorylation enrichment (c-Abl (mouse))
1.21 | 0.935 | 0.874 | HDRNTYEKYLG [TF_Y666] | 0.453 | 0.796 | 0.909 | 0.759 | 1.41 | 0.781 | 1.82 | 1.4 | 0.765 | 0.676 | 2.4 | 0.668 | 0.731
0.531 | 0.639 | 0.6 | HSQEDYFECFQ [ZIM2_Y411] | 1.25 | 1.82 | 8.51 | 1.2 | 0.669 | 2.03 | 0.79 | 0.623 | 0.624 | 10.2 | 3.08 | 0.614 | 0.902
0.638 | 0.997 | 0.791 | EEETDYTPVWC [UROD_Y30_G25E] | 1.16 | 1.25 | 0.876 | 0.589 | 0.484 | 0.689 | 0.503 | 0.578 | 0.504 | 0.554 | 1.58 | 0.771 | 0.937
0.522 | 0.735 | 0.612 | NQELIYEGRRL [TBK1_Y354] | 0.581 | 0.763 | 0.808 | 0.668 | 8.61 | 0.518 | 7.87 | 9.83 | 0.581 | 0.472 | 0.755 | 8.54 | 5
0.393 | 0.796 | 0.674 | IATAIYSGDKI [UGGT2_Y823] | 0.6 | 0.671 | 0.482 | 0.432 | 2.11 | 0.434 | 2.69 | 2.38 | 0.455 | 0.421 | 0.543 | 0.396 | 0.422
